This note sets out measurements from patent US7037656B2, “Methods and compositions for identifying ligands for nuclear receptors” (priority 2000, dated 2006).

Holding throughout (experiment): cell-based or functional assay
The target in assay [1] is spruce budworm C. fumiferana ultraspiracle receptor with deletion of the A/B transactivation domain (Cf ΔAB USP) (Choristoneura fumiferana).
The target of assay [2] is full-length mosquito A. aegypti ultraspiracle receptor, b-form (AaUSPb) (Aedes aegypti).
For assay [3], the target named is full-length mosquito A. aegypti ultraspiracle receptor, a-form (AaUSPa) (Aedes aegypti).
The target of assay [4] is mouse RXR γ (retinoid X receptor γ) (mouse) (UniProt P28705).
mouse RXR γ (retinoid X receptor γ) (mouse), sequence (P28705 whole entry): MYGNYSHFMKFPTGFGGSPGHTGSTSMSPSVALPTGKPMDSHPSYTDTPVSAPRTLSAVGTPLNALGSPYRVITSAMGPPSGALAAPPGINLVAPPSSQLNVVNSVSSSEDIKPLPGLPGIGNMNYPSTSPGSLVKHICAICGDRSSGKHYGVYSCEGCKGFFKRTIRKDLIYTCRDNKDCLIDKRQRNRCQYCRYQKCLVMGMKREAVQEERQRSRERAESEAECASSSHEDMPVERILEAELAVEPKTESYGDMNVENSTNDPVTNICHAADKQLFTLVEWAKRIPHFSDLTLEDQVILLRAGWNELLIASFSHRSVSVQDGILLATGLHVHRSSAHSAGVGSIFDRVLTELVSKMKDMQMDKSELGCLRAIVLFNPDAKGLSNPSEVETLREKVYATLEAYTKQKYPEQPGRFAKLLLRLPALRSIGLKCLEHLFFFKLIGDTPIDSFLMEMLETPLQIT
Assay [5] deals with T1, full-length D. melanogaster ultraspiracle receptor (DmUSP) (Drosophila melanogaster).
T1 sequence (P20153 1-508, looked up): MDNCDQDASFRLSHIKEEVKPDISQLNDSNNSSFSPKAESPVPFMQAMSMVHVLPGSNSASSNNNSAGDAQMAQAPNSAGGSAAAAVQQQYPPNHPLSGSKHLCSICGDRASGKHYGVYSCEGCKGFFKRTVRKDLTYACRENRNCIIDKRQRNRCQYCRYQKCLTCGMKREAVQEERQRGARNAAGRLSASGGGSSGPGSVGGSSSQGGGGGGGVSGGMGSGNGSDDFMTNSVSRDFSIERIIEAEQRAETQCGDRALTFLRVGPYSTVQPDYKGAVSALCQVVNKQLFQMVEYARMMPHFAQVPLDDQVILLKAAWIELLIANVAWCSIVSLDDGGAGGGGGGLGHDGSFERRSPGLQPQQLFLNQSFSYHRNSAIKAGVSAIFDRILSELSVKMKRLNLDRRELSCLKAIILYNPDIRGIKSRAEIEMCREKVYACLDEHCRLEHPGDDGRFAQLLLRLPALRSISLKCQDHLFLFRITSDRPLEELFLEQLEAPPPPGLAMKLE

The target of assay [6] is D. melanogaster ultraspiracle receptor with deletion of the AB transactivation domain (Dm ΔAB USP) (Drosophila melanogaster) (UniProt P20153).
Assay [7] has as its target full-length spruce budworm C. fumiferana ultraspiracle receptor (CfUSP) (Choristoneura fumiferana).
In assay [8] the target is mouse RXR β (retinoid X receptor β) (mouse) (UniProt P28704).
mouse RXR β (retinoid X receptor β) (mouse), sequence (P28704 111-520 limits assumed): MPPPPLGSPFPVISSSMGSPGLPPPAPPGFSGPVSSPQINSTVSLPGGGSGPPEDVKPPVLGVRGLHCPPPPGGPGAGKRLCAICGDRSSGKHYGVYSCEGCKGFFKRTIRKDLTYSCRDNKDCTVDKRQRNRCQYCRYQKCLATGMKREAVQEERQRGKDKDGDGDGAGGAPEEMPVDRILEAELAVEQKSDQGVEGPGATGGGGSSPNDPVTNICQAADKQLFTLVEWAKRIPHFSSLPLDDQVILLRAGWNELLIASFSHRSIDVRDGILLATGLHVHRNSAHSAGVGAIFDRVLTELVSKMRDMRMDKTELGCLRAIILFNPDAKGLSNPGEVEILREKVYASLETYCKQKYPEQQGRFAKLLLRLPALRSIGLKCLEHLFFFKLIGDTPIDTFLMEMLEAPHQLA
The target of assay [9] is mosquito A. aegypti ultraspiracle receptor with deletion of the A/B transactivation domain (Aa ΔAB USP) (Aedes aegypti).
The target of assay [10] is human RXR α (retinoid X receptor α) (human) (UniProt P19793).
human RXR α (retinoid X receptor α) (human), sequence (P19793 whole entry): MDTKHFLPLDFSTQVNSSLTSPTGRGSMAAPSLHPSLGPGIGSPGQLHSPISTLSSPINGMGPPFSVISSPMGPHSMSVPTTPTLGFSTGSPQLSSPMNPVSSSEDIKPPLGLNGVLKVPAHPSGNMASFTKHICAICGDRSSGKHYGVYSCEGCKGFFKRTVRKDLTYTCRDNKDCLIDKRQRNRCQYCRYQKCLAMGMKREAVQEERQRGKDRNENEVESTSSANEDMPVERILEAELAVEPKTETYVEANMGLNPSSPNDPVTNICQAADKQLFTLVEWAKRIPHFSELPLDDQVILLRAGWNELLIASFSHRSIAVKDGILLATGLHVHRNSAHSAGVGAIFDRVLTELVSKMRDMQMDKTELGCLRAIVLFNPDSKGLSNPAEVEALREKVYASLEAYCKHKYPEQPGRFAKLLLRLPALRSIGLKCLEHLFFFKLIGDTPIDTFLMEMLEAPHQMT

Regarding “N-terminal truncated D. melanogaster EcR B-1 ecdysone receptor (Dm ΔN EcR) (from UniProt P34021 221-878)”, the β-galactosidase activity (yeast 6x EcRE-lacZ reporter), DMSO, with GRIP1 in [1] was determined as 0.235; in assay [2], 0.251; in assay [3] it was 0.243; in assay [4], 0.364; in assay [5], 0.424; in assay [6], 0.34. The same molecule returned a β-galactosidase activity (yeast 6x EcRE-lacZ reporter), DMSO, with GRIP1 in assay [7] of 1.15. In addition, the β-galactosidase activity (yeast 6x EcRE-lacZ reporter), RH 5992 10 µM, with GRIP1 in assay [1] was found to be 0.59; in assay [2], 2.07; in [3] it was 1.86; in assay [4], 1.28; in assay [5], 2.54; in assay [6], 2.32. For the same molecule, the β-galactosidase activity (yeast 6x EcRE-lacZ reporter), RH 5992 10 µM, with GRIP1 in assay [7] is 1.41. The β-galactosidase activity (yeast 6x EcRE-lacZ reporter), DMSO, without GRIP1 in assay [5] was found to be 0.152. In assay [5], this molecule gave a β-galactosidase activity (yeast 6x EcRE-lacZ reporter), RH 5992 10 µM, without GRIP1 of 0.182.

Consider “full-length mosquito A. aegypti ecdysone receptor (AaEcR) (from UniProt P49880 1-776)”, for which, in [2], the β-galactosidase activity (yeast 6x EcRE-lacZ reporter), DMSO, without GRIP1 amounted to 3 and the β-galactosidase activity (yeast 6x EcRE-lacZ reporter), RH 5992 10 µM, without GRIP1 is 2.7. In assay [3], this molecule returned a β-galactosidase activity (yeast 6x EcRE-lacZ reporter), DMSO, without GRIP1 of 2.3 and a β-galactosidase activity (yeast 6x EcRE-lacZ reporter), RH 5992 10 µM, without GRIP1 of 2.45.

In assay [1], “full-length spruce budworm C. fumiferana ecdysone receptor (CfEcR)” showed a β-galactosidase activity (yeast 6x EcRE-lacZ reporter), DMSO, with GRIP1 of 0.223; a β-galactosidase activity (yeast 6x EcRE-lacZ reporter), DMSO, without GRIP1 of 0.205; a β-galactosidase activity (yeast 6x EcRE-lacZ reporter), RH 5992 10 µM, with GRIP1 of 0.492; a β-galactosidase activity (yeast 6x EcRE-lacZ reporter), RH 5992 10 µM, without GRIP1 of 0.241. In [7], this molecule displayed a β-galactosidase activity (yeast 6x EcRE-lacZ reporter), DMSO, without GRIP1 of 2.73 and a β-galactosidase activity (yeast 6x EcRE-lacZ reporter), RH 5992 10 µM, without GRIP1 of 3.

“mosquito A. aegypti ecdysone receptor with deletion of the A/B transactivation domain (Aa ΔAB EcR) (from UniProt P49880 285-776)”: the β-galactosidase activity (yeast 6x EcRE-lacZ reporter), DMSO, with GRIP1 in [8] is 0.231; in [9] it was 0.194; in [1] it was 0.25; in [2], 0.24; in assay [3] it was 0.272; in [4], 0.496. The β-galactosidase activity (yeast 6x EcRE-lacZ reporter), DMSO, with GRIP1 in assay [10] worked out at 0.544. Besides, the β-galactosidase activity (yeast 6x EcRE-lacZ reporter), RH 5992 10 µM, with GRIP1 in assay [8] turned out to be 1.98; in assay [9], 1.37; in assay [1], 3; in [2] it was 2.07; in assay [3], 2.03; in assay [4], 2.67. Besides, the β-galactosidase activity (yeast 6x EcRE-lacZ reporter), RH 5992 10 µM, with GRIP1 in assay [10] came out at 2.03. In addition, the results for the β-galactosidase activity (yeast 6x EcRE-lacZ reporter), DMSO, without GRIP1 in assay [9], in assay [2] and in assay [3] were 0.187, 0.177 and 0.194, respectively. The β-galactosidase activity (yeast 6x EcRE-lacZ reporter), RH 5992 10 µM, without GRIP1 in assay [9] was 0.196; in [2] it was 0.184; in assay [3] it was 0.209.

For the molecule “spruce budworm C. fumiferana ecdysone receptor with deletion of the AB transactivation domain (Cf ΔAB EcR)”, the β-galactosidase activity (yeast 6x EcRE-lacZ reporter), DMSO, with GRIP1 in [8] stood at 0.205; in assay [1], 0.2; in [4], 0.2; in assay [10] it was 0.27. Besides, the β-galactosidase activity (yeast 6x EcRE-lacZ reporter), RH 5992 10 µM, with GRIP1 turned out to be 0.456 in assay [8], 2.5 in assay [1], 1.03 in assay [4] and 2.06 in assay [10]. Further, the β-galactosidase activity (yeast 6x EcRE-lacZ reporter), DMSO, without GRIP1 in assay [1] came out at 0.209; in assay [7] it was 2.68. Moreover, the β-galactosidase activity (yeast 6x EcRE-lacZ reporter), RH 5992 10 µM, with GRIP1 (Table 4 prints another value than Table 3 for this combination) in assay [1] stood at 3. Further, the β-galactosidase activity (yeast 6x EcRE-lacZ reporter), RH 5992 10 µM, without GRIP1 came out at 0.234 in [1] and 3 in [7].

B1: full-length D. melanogaster EcR B-1 ecdysone receptor (receptor, Drosophila melanogaster, UniProt P34021 1-878, looked up)
chain: MKRRWSNNGGFMRLPEESSSEVTSSSNGLVLPSGVNMSPSSLDSHDYCDQDLWLCGNESGSFGGSNGHGLSQQQQSVITLAMHGCSSTLPAQTTIIPINGNANGNGGSTNGQYVPGATNLGALANGMLNGGFNGMQQQIQNGHGLINSTTPSTPTTPLHLQQNLGGAGGGGIGGMGILHHANGTPNGLIGVVGGGGGVGLGVGGGGVGGLGMQHTPRSDSVNSISSGRDDLSPSSSLNGYSANESCDAKKSKKGPAPRVQEELCLVCGDRASGYHYNALTCEGCKGFFRRSVTKSAVYCCKFGRACEMDMYMRRKCQECRLKKCLAVGMRPECVVPENQCAMKRREKKAQKEKDKMTTSPSSQHGGNGSLASGGGQDFVKKEILDLMTCEPPQHATIPLLPDEILAKCQARNIPSLTYNQLAVIYKLIWYQDGYEQPSEEDLRRIMSQPDENESQTDVSFRHITEITILTVQLIVEFAKGLPAFTKIPQEDQITLLKACSSEVMMLRMARRYDHSSDSIFFANNRSYTRDSYKMAGMADNIEDLLHFCRQMFSMKVDNVEYALLTAIVIFSDRPGLEKAQLVEAIQSYYIDTLRIYILNRHCGDSMSLVFYAKLLSILTELRTLGNQNAEMCFSLKLKNRKLPKFLEEIWDVHAIPPSVQSHLQITQEENERLERAERMRASVGGAITAGIDCDSASTSAAAAAAQHQPQPQPQPQPSSLTQNDSQHQTQPQLQPQLPPQLQGQLQPQLQPQLQTQLQPQIQPQPQLLPVSAPVPASVTAPGSLSAVSTSSEYMGGSAAIGPITPATTSSITAAVTASSTTSAVPMGNGVGVGVGVGGNVSMYANAQTAMALMGVALHSHQEQLIGGVAVKSEHSTTA
B1: in assay [5], the β-galactosidase activity (yeast 6x EcRE-lacZ reporter), DMSO, without GRIP1 turned out to be 2.09 and the β-galactosidase activity (yeast 6x EcRE-lacZ reporter), RH 5992 10 µM, without GRIP1 came out at 1.95.
